Test results from US20070141048A1 (SYMPHOGEN A S, published 2007).

B1: g060b09 (Fab, V domains shown)
VH: QVQLQESGPTLVKPTQTLTLTCSFSGFSLGTTGVNVGWIRQPPGKALEWLALISWDGGKHYSPSLNSRITLTKDASREQVVVPTMTNMDPADTGRYYCARIVGTHGFDYWGQGTLVTVS
VL: EIVLTQSPSFLSASVGDRVTITCRASQGIGNFLAWYQQKPGKAPKLLISGASTLQSWVPSRFSGRGSGTEFTLTISSLQPEDFATYYCQQLNRYPPYTFGQGTKLEIK
B2: g060f10 (Fab, V domains shown)
VH: QVTLKESGPTLVKPTQTLTLTCTFSGFSLGTTGVNVGWIRQPPGKALEWLALISWGGGKHYSPSLNSRITLTKDASREQVVVLTMANMDPVDTGRYYCARIVGTHGFDYWGQGTLVTVS
VL: EIVMTQSPSFLSASVGDRVTITCRASQGIGNFLAWYQQKPGKAPKLLISGASTLQSWVPSRFSGRGSGTEFTLTISSLQPEDFATYYCQQLNRYPPYTFGQGTKLEIK
B3: g060f01 (Fab, V domains shown)
VH: QVQLQQSGGGVVQPGRSLRLSCAASGFAFRDYAMHWVRQAPGKGLEWMGVISFNGDQIFYADSMKGRFTISRENSKNTLHLRMNSLRPEDTAVYYCARARLLFCSGGRCDMDSWGQGTLVTVS
VL: EIVMTQSPSFLSASVGDRVTITCRASQDIITYLAWYQQKPGKAPEVLIFGASTLQSGVPSRFSGSGSGTEFTLTISSLQPEDFATYYCQQIIRYPRTFGQGTRVEIK
B4: g060a11 (Fab, V domains shown)
VH: KVQLVESGGGLVKPGGSLRLSCVVSGFPLNRYTMNWVRQAPGKGLEWLSSISSTSSYIYYADSVKGRFTISRDNAKNSLFLQMNSLRADDTALYFCASGNTHDYWGQGTLVTVS
VL: DVVMTQSPSSLSASVGDRVTITCRASQSININLNWFQQKPGKAPNLLIYSASTLQTGVPSRFSGSGSGTEFTLTISSLQPEDFATYYCQQIYSHVRTFGQGTKVEIK
B5: g060c12 (Fab, V domains shown)
VH: KVQLVQSGGGLVKPGGSLRLSCVVSGFPLNRYIMNWVRQTPGKGLEWLSSISSTSSYIYYADSAKGRFTISRDNAKNSLFLQMNSLRAEDTGLYYCASGNTHDYWGQGTLVTVS
VL: EIVLTQSPSSLSASVGDRVTTTCRTSQSIFINLNWFQQKPGKAPKLLIYSASTLQTGVPSRFSGSGSGTEFTLTISSLQPEDFATYYCQQIYSQVRTFGQGTKVEIK
B6: g060a10 (Fab, V domains shown)
VH: QITLKESGPTLVKPTQTLTLTCTLSGFSLYTTGVGVGWIRQPPGKALEWLARIYWDDDERYNPSLKSRLTITKDASKNQVVLKMTNMDPVDTATYYCARTMGVVLPFDYWGQGTLVTVS
VL: EIVLTQSPSTLSASVGDRVTITCRASQSIGSWLAWYQQKPGKAPKLLIYKASTLQSETPSRFRGSGSGTEFTLTISSLQPDDFATYYCQQFNSFSPWTFGQGTKVEFK
B7: g060f11 (Fab, V domains shown)
VH: EVQLVQSGGGVVRPGGSLRLSCAGSGFTFDEYAMSWVRQAPGKGLEWVAFINWNGDSTYYADSVKGRFTVSRTNAKNSLYLQMNSLRAEDTAFYYCARDPRTKLGMSYFDYWGQGTLVTVS
VL: EIVMTQSPSSLSASVGDRVTITCRASQTISNHLNWYQQKPGRAPKLLIYVGSSLQSGVPSRFSGSGSGTDFTLTISGLQPEDFATYYCQQSYSPSYTFGQGTKVEIK
B8: g060g12 (Fab, V domains shown)
VH: EVQLVQSGGGVVRPGGSLRLSCAGSGFTFDEYAMSWVRQAPGKGLKWVAFINWNGDSTYYADSVKGRFTVSRSNAKNSLYLQMNSLRAEDTAFYCCARDPRTKLGMSYFDYWGQGTLVTVS
VL: DIQMTQSPSSLSASVGDRVTITCRASQTISNHLNWYQQKPGRAPKLLIYVGSSLRSGVPSRFSGSGSGTDFTLTISGLQPEDFATYYCQQSYSPSYTFGQGTKVEIK

target: T1, Ovalbumin (UniProt P01012 2-386); assay: ELISA, periplasmic extract on coated Ovalbumin
T1 sequence: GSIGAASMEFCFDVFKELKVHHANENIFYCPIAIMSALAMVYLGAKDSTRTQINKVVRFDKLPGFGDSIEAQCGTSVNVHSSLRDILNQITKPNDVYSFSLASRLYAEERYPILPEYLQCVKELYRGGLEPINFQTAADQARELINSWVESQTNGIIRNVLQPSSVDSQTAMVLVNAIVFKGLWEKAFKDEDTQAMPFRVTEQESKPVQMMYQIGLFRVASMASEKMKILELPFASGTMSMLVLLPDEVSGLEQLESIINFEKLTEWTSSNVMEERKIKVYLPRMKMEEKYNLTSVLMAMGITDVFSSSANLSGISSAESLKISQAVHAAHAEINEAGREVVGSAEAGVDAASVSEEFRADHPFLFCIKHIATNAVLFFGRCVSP

**Q.** Does B1 bind?
**A.** no binding (tested: 10 µg/ml Ovalbumin coat)

**Q.** Does B2 bind?
**A.** no binding (tested: 10 µg/ml Ovalbumin coat)

**Q.** Does B3 bind?
**A.** no binding (tested: 10 µg/ml Ovalbumin coat)

**Q.** Does B4 bind?
**A.** no binding (tested: 10 µg/ml Ovalbumin coat)

**Q.** Does B5 bind?
**A.** no binding (tested: 10 µg/ml Ovalbumin coat)

**Q.** Does B6 bind?
**A.** no binding (tested: 10 µg/ml Ovalbumin coat)

**Q.** Does B7 bind?
**A.** no binding (tested: 10 µg/ml Ovalbumin coat)

**Q.** Does B8 bind?
**A.** no binding (tested: 10 µg/ml Ovalbumin coat)
